± gives the standard deviation of the averaged measurements.
B1: library; a variant is named by its letters at N, in order (parent)
chain: GCUGUCACCGGUGCUUGGUACGUUAUAUUCAGCCGGUCUGAUGAGUCUNNNNNNAGACGAAACAGC

Experiments:
(6R,S)-folinic acid [1] = variants of: B1; assay: FACS-Seq fitted mean relative fluorescence mCherry/BFP without ligand (log10 relative fluorescence); HEK293T overexpressing SLC46A1; higher = higher reporter protein expression; conditions: without (6R,S)-folinic acid; ligand present: no
How it was run: (§1)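 After lentiviral transduction, HEK293T library cells bearing an mCherry ribozyme-switch reporter and an EF1α-BFP marker were enriched. They were then held for 48 h with or without ligand and sorted by mCherry/BFP into 6 bins, and each bin's genomic DNA was PCR-amplified, barcoded and MiSeq-sequenced. Fluorescence is expressed as a normalized fitted mean: the normal mean of log10(mCherry/BFP) bin counts, scaled to five spiked-in control ribozymes.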

(6R,S)-folinic acid [2] = variants of: B1; assay: normalized RNA/DNA level without ligand (relative to sTRSVctl = 100) (log10 (% of sTRSVctl)); HEK293T overexpressing SLC46A1; higher = less ribozyme self-cleavage, higher mRNA level; conditions: without (6R,S)-folinic acid; ligand present: no
Method: (§2)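 Hammerhead (sTRSV) ribozyme switch libraries with a ligand aptamer grafted on stem I and a randomized N4-6 loop II, cloned into the 3' UTR of mCherry and transiently transfected into HEK293T cells; RNA-Seq 72 h post transfection with ligand added 1 h before transfection; RNA read count / plasmid DNA read count normalized to the non-cleaving sTRSVctl (x100), log10; sequences with >100 DNA reads. FACS-Seq: lentiviral library sorted into 6 bins after 48 h ligand, log-normal fit mean of mCherry/BFP scaled to controls. Printed sequences are partial switch sequences.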

(6R,S)-folinic acid [3] = variants of: B1; assay: FACS-Seq fitted mean relative fluorescence mCherry/BFP with ligand (log10 relative fluorescence); HEK293T overexpressing SLC46A1; ligand concentration (+) FACS-Seq: 6 mM; higher = higher reporter protein expression; conditions: with (6R,S)-folinic acid; ligand present: yes
How it was run: as §1

(6R,S)-folinic acid [4] = variants of: B1; assay: normalized RNA/DNA level with ligand (relative to sTRSVctl = 100) (log10 (% of sTRSVctl)); HEK293T overexpressing SLC46A1; ligand concentration (+) RNA-Seq: 6 mM; higher = less ribozyme self-cleavage, higher mRNA level; conditions: with (6R,S)-folinic acid; ligand present: yes
Method: as §2

Row | Variant | FACS-Seq fitted mean (log10) ((6R,S)-folinic acid [1]) | normalized RNA/DNA level without ligand (log10) ((6R,S)-folinic acid [2]) | FACS-Seq fitted mean (log10) ((6R,S)-folinic acid [3]) | normalized RNA/DNA level with ligand (log10) ((6R,S)-folinic acid [4])
1 | GCUGUCACCGGUGCUUGGUACGUUAUAUUCAGCCGGUCUGAUGAGUCUACGAAGAGACGAAACAGC [ACGAAG] | 0.365 ± 0.028 | 1.834 ± 0.0094 | 0.953 ± 0.2 | 1.993 ± 0.017
2 | GCUGUCACCGGUGCUUGGUACGUUAUAUUCAGCCGGUCUGAUGAGUCUACGACGAGACGAAACAGC [ACGACG] | 0.261 ± 0.092 | 1.93 ± 0.021 | 0.213 ± 0.08 | 2.0313 ± 0.0019
3 | GCUGUCACCGGUGCUUGGUACGUUAUAUUCAGCCGGUCUGAUGAGUCUACGACCAGACGAAACAGC [ACGACC] | 0.728 ± 0.055 | 2.066 ± 0.015 | 0.641 ± 0.33 | 2.083 ± 0.02
4 | GCUGUCACCGGUGCUUGGUACGUUAUAUUCAGCCGGUCUGAUGAGUCUACGACAAGACGAAACAGC [ACGACA] | -0.43 ± 0.011 | 2.015 ± 0.0095 | -0.351 ± 0.72 | 2.045 ± 0.019
5 | GCUGUCACCGGUGCUUGGUACGUUAUAUUCAGCCGGUCUGAUGAGUCUACGAUCAGACGAAACAGC [ACGAUC] | 0.555 ± 0.16 | 2.062 ± 0.0089 | 0.363 ± 0.0082 | 2.038 ± 0.0079
6 | GCUGUCACCGGUGCUUGGUACGUUAUAUUCAGCCGGUCUGAUGAGUCUCCGAGCAGACGAAACAGC [CCGAGC] | 0.201 ± 0.25 | 2.049 ± 0.0044 | 0.357 ± 0.22 | 2.01 ± 0.03
7 | GCUGUCACCGGUGCUUGGUACGUUAUAUUCAGCCGGUCUGAUGAGUCUUCGAUAAGACGAAACAGC [UCGAUA] | 0.597 ± 0.085 | 1.987 ± 0.0049 | 0.69 ± 0.34 | 2.02 ± 0.026
8 | GCUGUCACCGGUGCUUGGUACGUUAUAUUCAGCCGGUCUGAUGAGUCUUCGAUGAGACGAAACAGC [UCGAUG] | 0.26 ± 0.021 | 1.797 ± 0.015 | 0.486 ± 0.017 | 1.97 ± 0.039
9 | GCUGUCACCGGUGCUUGGUACGUUAUAUUCAGCCGGUCUGAUGAGUCUCCGAAGAGACGAAACAGC [CCGAAG] | -0.309 ± 0.021 | 1.869 ± 0.0079 | -0.882 ± 0.26 | 2 ± 0.039
10 | GCUGUCACCGGUGCUUGGUACGUUAUAUUCAGCCGGUCUGAUGAGUCUUCGACUAGACGAAACAGC [UCGACU] | 0.225 ± 0.028 | 2.011 ± 0.0057 | 0.701 ± 0.28 | 2.01 ± 0.022
11 | GCUGUCACCGGUGCUUGGUACGUUAUAUUCAGCCGGUCUGAUGAGUCUUCGAAUAGACGAAACAGC [UCGAAU] | 0.347 ± 0.072 | 1.932 ± 0.013 | 0.308 ± 0.13 | 2 ± 0.044
12 | GCUGUCACCGGUGCUUGGUACGUUAUAUUCAGCCGGUCUGAUGAGUCUUCGAAGAGACGAAACAGC [UCGAAG] | -0.0439 ± 0.018 | 1.74 ± 0.041 | -0.0157 ± 0.066 | 1.991 ± 0.0057
13 | GCUGUCACCGGUGCUUGGUACGUUAUAUUCAGCCGGUCUGAUGAGUCUGCGAUGAGACGAAACAGC [GCGAUG] | 0.371 ± 0.13 | 1.959 ± 0.008 | 0.407 ± 0.055 | 2.02 ± 0.043
14 | GCUGUCACCGGUGCUUGGUACGUUAUAUUCAGCCGGUCUGAUGAGUCUGCGAGAAGACGAAACAGC [GCGAGA] | 0.0695 ± 0.067 | 1.996 ± 0.016 | 0.197 ± 0.13 | 2.03 ± 0.018
15 | GCUGUCACCGGUGCUUGGUACGUUAUAUUCAGCCGGUCUGAUGAGUCUGCGAGCAGACGAAACAGC [GCGAGC] | 0.231 ± 0.076 | 2.014 ± 0.01 | 0.217 ± 0.14 | 2.036 ± 0.014
16 | GCUGUCACCGGUGCUUGGUACGUUAUAUUCAGCCGGUCUGAUGAGUCUACGCCUAGACGAAACAGC [ACGCCU] | -0.804 ± 0.062 | 2.07 ± 0.011 | -1.68 ± 0.58 | 2.06 ± 0.046
17 | GCUGUCACCGGUGCUUGGUACGUUAUAUUCAGCCGGUCUGAUGAGUCUUCGAGUAGACGAAACAGC [UCGAGU] | 0.379 ± 0.014 | 1.966 ± 0.014 | 0.483 ± 0.24 | 2.0199 ± 0.0014
18 | GCUGUCACCGGUGCUUGGUACGUUAUAUUCAGCCGGUCUGAUGAGUCUGCGCACAGACGAAACAGC [GCGCAC] | 0.472 ± 0.12 | 1.99 ± 0.007 | 0.311 ± 0.17 | 2.01 ± 0.04
19 | GCUGUCACCGGUGCUUGGUACGUUAUAUUCAGCCGGUCUGAUGAGUCUUCGCAUAGACGAAACAGC [UCGCAU] | 0.644 ± 0.045 | 1.97 ± 0.018 | 0.661 ± 0.25 | 2 ± 0.042
20 | GCUGUCACCGGUGCUUGGUACGUUAUAUUCAGCCGGUCUGAUGAGUCUGCGAAUAGACGAAACAGC [GCGAAU] | 0.583 ± 0.062 | 2.014 ± 0.0084 | 0.3524 ± 0.00074 | 2.047 ± 0.016
21 | GCUGUCACCGGUGCUUGGUACGUUAUAUUCAGCCGGUCUGAUGAGUCUGCGAAGAGACGAAACAGC [GCGAAG] | 0.477 ± 0.0095 | 1.947 ± 0.0035 | 0.576 ± 0.049 | 2.05 ± 0.0089
